Values quoted from earlier work, collected in article PMC11695321.

What was measured:
Experiment in all cases: SPR
IKKα (Homo sapiens) = IKKα (Homo sapiens) (UniProt O15111)
IKKβ (Homo sapiens) = IKKβ (Homo sapiens) (UniProt O14920)
NF-κB p50 (Homo sapiens) = NF-κB p50 (Homo sapiens) (UniProt P19838)
UniProt P19838, sequence (P19838 1-433): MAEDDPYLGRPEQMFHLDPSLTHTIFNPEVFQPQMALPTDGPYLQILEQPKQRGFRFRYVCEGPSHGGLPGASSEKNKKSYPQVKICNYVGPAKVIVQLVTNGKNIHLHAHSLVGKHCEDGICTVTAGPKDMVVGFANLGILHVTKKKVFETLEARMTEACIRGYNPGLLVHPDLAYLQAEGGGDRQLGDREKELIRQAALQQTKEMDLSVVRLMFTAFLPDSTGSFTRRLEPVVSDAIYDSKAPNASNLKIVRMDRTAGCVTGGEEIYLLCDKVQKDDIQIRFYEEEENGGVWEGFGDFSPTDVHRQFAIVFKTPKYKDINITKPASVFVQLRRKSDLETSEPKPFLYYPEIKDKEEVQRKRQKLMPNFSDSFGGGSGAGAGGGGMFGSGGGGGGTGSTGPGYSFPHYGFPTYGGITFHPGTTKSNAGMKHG

UniProt O15111, sequence (O15111 whole entry): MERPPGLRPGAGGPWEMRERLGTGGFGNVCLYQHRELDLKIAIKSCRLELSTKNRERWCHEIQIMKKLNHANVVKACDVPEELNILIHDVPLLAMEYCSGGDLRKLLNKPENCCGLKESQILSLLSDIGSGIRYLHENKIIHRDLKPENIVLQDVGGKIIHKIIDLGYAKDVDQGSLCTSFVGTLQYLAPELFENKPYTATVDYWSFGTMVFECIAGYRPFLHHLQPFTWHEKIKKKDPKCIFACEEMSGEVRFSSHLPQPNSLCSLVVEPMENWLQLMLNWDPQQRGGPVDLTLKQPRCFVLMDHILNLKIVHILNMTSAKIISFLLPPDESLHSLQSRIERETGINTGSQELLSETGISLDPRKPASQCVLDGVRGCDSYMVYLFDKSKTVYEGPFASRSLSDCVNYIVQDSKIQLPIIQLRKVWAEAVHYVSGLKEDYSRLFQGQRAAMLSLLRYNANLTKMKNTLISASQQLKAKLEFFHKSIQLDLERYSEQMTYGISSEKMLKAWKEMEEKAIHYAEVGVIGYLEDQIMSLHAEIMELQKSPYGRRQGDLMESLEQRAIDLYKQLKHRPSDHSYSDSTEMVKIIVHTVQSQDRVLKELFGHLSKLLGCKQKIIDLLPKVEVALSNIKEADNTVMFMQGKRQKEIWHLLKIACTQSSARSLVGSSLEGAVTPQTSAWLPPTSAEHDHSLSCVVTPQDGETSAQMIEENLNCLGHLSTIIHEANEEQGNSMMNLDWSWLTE
UniProt O14920, sequence (O14920 whole entry): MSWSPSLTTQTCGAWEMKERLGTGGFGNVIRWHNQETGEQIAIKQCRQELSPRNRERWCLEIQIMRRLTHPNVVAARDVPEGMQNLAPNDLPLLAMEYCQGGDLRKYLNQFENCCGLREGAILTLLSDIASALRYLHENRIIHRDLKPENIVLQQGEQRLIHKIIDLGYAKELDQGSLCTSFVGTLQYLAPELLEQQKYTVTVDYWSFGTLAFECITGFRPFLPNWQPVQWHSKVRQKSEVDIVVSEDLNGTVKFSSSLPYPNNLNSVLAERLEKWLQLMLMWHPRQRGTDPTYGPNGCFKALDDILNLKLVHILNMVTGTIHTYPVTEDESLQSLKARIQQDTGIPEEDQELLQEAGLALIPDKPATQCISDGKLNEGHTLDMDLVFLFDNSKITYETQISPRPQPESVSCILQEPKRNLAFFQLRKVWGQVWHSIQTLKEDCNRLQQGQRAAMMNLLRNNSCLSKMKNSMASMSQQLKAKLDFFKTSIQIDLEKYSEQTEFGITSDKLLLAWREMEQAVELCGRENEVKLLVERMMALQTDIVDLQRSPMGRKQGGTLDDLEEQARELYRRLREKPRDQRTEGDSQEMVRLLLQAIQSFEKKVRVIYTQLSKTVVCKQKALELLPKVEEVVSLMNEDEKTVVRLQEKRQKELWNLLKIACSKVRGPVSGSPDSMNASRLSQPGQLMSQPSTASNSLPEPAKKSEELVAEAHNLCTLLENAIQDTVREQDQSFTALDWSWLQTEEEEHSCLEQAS

For melittin (from UniProt P01501), the Kd (IKKα (Homo sapiens)) is listed as 4.6 µM, the Kd (IKKβ (Homo sapiens)) is listed as 1.34 nM and the Kd (NF-κB p50 (Homo sapiens)) is listed as 1.01 nM.
